Measurements reported in article PMC11849304 (Virology Journal, 2025).

Target: soluble WT SARS-CoV-2 spike trimer protein (SARS-CoV-2, wild-type (NC_045512), UniProt P0DTC2)
Test: ELISA

Binder	binding result
COV2-2490 (antibody, V domains shown) VH: EVQLVESGGGLVQPGGSLRLSCAASGFTFSSYWMNWVRQAPGKGLEWVANINQDGGEKYYVDSVRGRFTISRDNAKNSLYLQMNSLRAEDTAVYYCARDPYDLYGDYGGTFDYWGQGTLVTVSS VL: not shown	binds
8D2 (antibody, V domains shown) VH: EVQLVESGGGLVQPGGSLRLSCAASGFTFSSYWMSWVRQAPGKGLEWVANINQDGSEKYYVDSVKGRFTISRDNAKNSLYLQVNSLRAEDTAVYYCARDWDYDILTGSWFGAFDIWGQGTTVTVSS VL: DIQMTQSPSSLSASVGDRVTITCRASQGIRNDLGWYQQKPGKAPKRLIYAASSLQSGVPSRFSGSGSGTEFTLTISSLQPEDFATYYCLQHNSYPLTFGGGTKVEIK	binds
